# Earlier results in PMC3566329.
# Assays:
# [1] = target: Methylamine dehydrogenase (quinone) (Paracoccus denitrificans) (UniProt P22619); assay: single turnover kinetics
# [2] = target: preMADH (Paracoccus denitrificans) (UniProt P22619)
Substance,Kd [1],Kd [2]
MauG (di-ferrous) (from UniProt Q51658),10.1 µM,
MauG (from UniProt Q51658),,< 1.5 µM
